According to paper PMC4402515 (Nucleic Acids Research, 2015):

Experiments:
crystal structure = target: the molecule itself; experiment: crystal structure
SAXS = target: the molecule itself; experiment: SAXS

Row | Protein | stoichiometry N (crystal structure) | binding result (SAXS)
1 | SFPQ-276–535 (domain or fragment) EGFKANLSLLRRPGEKTYTQRCRLFVGNLPADITEDEFKRLFAKYGEPGEVFINKGKGFGFIKLESRALAEIAKAELDDTPMRGRQLRVRFATHAAALSVRNLSPYVSNELLEEAFSQFGPIERAVVIVDDRGRSTGKGIVEFASKPAARKAFERCSEGVFLLTTTPRPVIVEPLEQLDDEDGLPEKLAQKNPMYQKERETPPRFAQHGTFEYEYSQRWKSLDEMEKQQREQVEKNMKDAKDKLESEMEDAYHEHQANLL | 2 | –
2 | SFPQ-276–598 (domain or fragment) EGFKANLSLLRRPGEKTYTQRCRLFVGNLPADITEDEFKRLFAKYGEPGEVFINKGKGFGFIKLESRALAEIAKAELDDTPMRGRQLRVRFATHAAALSVRNLSPYVSNELLEEAFSQFGPIERAVVIVDDRGRSTGKGIVEFASKPAARKAFERCSEGVFLLTTTPRPVIVEPLEQLDDEDGLPEKLAQKNPMYQKERETPPRFAQHGTFEYEYSQRWKSLDEMEKQQREQVEKNMKDAKDKLESEMEDAYHEHQANLLRQDLMRRQEELRRMEELHNQEMQKRKEMQLRQEEERRRREEEMMIRQREMEEQMRRQREESYS | 2 | –
3 | SFPQ-276–598/NONO-53–312 heterodimer (complex) chain 1: EGFKANLSLLRRPGEKTYTQRCRLFVGNLPADITEDEFKRLFAKYGEPGEVFINKGKGFGFIKLESRALAEIAKAELDDTPMRGRQLRVRFATHAAALSVRNLSPYVSNELLEEAFSQFGPIERAVVIVDDRGRSTGKGIVEFASKPAARKAFERCSEGVFLLTTTPRPVIVEPLEQLDDEDGLPEKLAQKNPMYQKERETPPRFAQHGTFEYEYSQRWKSLDEMEKQQREQVEKNMKDAKDKLESEMEDAYHEHQANLLRQDLMRRQEELRRMEELHNQEMQKRKEMQLRQEEERRRREEEMMIRQREMEEQMRRQREESYS chain 2: EGLTIDLKNFRKPGEKTFTQRSRLFVGNLPPDITEEEMRKLFEKYGKAGEVFIHKDKGFGFIRLETRTLAEIAKVELDNMPLRGKQLRVRFACHSASLTVRNLPQYVSNELLEEAFSVFGQVERAVVIVDDRGRPSGKGIVEFSGKPAARKALDRCSEGSFLLTTFPRPVTVEPMDQLDDEEGLPEKLVIKNQQFHKEREQPPRFAQPGSFEYEYAMRWKALIEMEKQQQDQVDRNIKEAREKLEMEMEAARHEHQVMLM | – | binds
4 | SFPQ-369–598 (domain or fragment) HAAALSVRNLSPYVSNELLEEAFSQFGPIERAVVIVDDRGRSTGKGIVEFASKPAARKAFERCSEGVFLLTTTPRPVIVEPLEQLDDEDGLPEKLAQKNPMYQKERETPPRFAQHGTFEYEYSQRWKSLDEMEKQQREQVEKNMKDAKDKLESEMEDAYHEHQANLLRQDLMRRQEELRRMEELHNQEMQKRKEMQLRQEEERRRREEEMMIRQREMEEQMRRQREESYS | 2 | –
